Data on 4 molecules can be found in article PMC9755681, “Next-generation sequencing of a combinatorial peptide phage library screened against ubiquitin identifies peptide aptamers that can inhibit the in vitro ubiquitin transfer cascade” (Frontiers in Microbiology, 2022).

The target of experiment [1] is T1, Ubiquitin (ubiquitination reactions, HDX-MS and reverse-phase HPLC) (human, UniProt P0CG48 1-76).
T1 construct: ubiquitin, human; the 76-residue ubiquitin unit cut from its precursor; That the HDX/HPLC ubiquitin is the Boston Biochem one is surmised; also called ubiquitin protein; native ubiquitin; source: bought: Boston Biochem (ubiquitination reactions)
Kind of experiment: HDX-MS; global deuteration of intact ubiquitin, 2 uM, ubiquitin to peptide 1:2 and 1:5, room temperature, 1 min in deuterated water with 0.1% DMSO. The conditions noted are these: both partners purified.

Experiment [2] has as its target T2, uniformly labeled 15N-human ubiquitin (human, UniProt P0CG48 1-76, uniformly 15N-labeled).
T2 construct: ubiquitin, human; the 76-residue ubiquitin unit cut from its precursor; also called N15-labeled Ubiquitin; source: bought: Asla Biotech (Latvia)
The experiment is described as follows: NMR titration; 1H-15N HSQC and 15N relaxation of 0.5 mM 15N-ubiquitin, 10 mM sodium phosphate pH 5.0, 298 K, without and with peptide (0.64 mg peptide 12 or 0.7 mg peptide 37 in 0.55 ml). The settings on record: both partners purified.

No end group written: not given here. *: point of attachment. Biotin = O=C1N[C@H]2[C@H](CS[C@H]2CCCCC(=O)*)N1

B1: peptide-12 (Biotin-SGSG-AKFDMHIATRLS-amide) (peptide)
peptide: Biotin-SGSGAKFDMHIATRLS-NH2
SMILES: CC[C@H](C)[C@H](NC(=O)[C@H](Cc1c[nH]cn1)NC(=O)[C@H](CCSC)NC(=O)[C@H](CC(=O)O)NC(=O)[C@H](Cc1ccccc1)NC(=O)[C@H](CCCCN)NC(=O)[C@H](C)NC(=O)CNC(=O)[C@H](CO)NC(=O)CNC(=O)[C@H](CO)NC(=O)CCCC[C@@H]1SC[C@@H]2NC(=O)N[C@@H]21)C(=O)N[C@@H](C)C(=O)N[C@H](C(=O)N[C@@H](CCCNC(=N)N)C(=O)N[C@@H](CC(C)C)C(=O)N[C@@H](CO)C(N)=O)[C@@H](C)O
notes: spacer; phage-selected 12-mer; also called synthetic peptide 12; source: synthetic peptide (Chiron Mimotopes, Australia)
For the molecule B1, in experiment [1], the binding result is “binds”.

B2: Non-tagged peptide-12 (AKFDMHIATRLS), non-biotinylated with a C-terminal NH2 (peptide)
peptide: AKFDMHIATRLS-NH2
notes: phage-selected 12-mer; source: synthetic peptide
For the molecule B2, in experiment [2], the binding result is recorded as “binds”.

B3: Non-tagged Peptide-37 (FIPAQLHFHWRS), non-biotinylated with a C-terminal NH2 (peptide)
peptide: FIPAQLHFHWRS-NH2
notes: as for B2
For the molecule B3, in experiment [2], the binding result is “binds”.

B4: peptide-37 (Biotin-SGSG-FIPAQLHFHWRS-amide) (peptide)
peptide: Biotin-SGSGFIPAQLHFHWRS-NH2
SMILES: CC[C@H](C)[C@H](NC(=O)[C@H](Cc1ccccc1)NC(=O)CNC(=O)[C@H](CO)NC(=O)CNC(=O)[C@H](CO)NC(=O)CCCC[C@@H]1SC[C@@H]2NC(=O)N[C@@H]21)C(=O)N1CCC[C@H]1C(=O)N[C@@H](C)C(=O)N[C@@H](CCC(N)=O)C(=O)N[C@@H](CC(C)C)C(=O)N[C@@H](Cc1c[nH]cn1)C(=O)N[C@@H](Cc1ccccc1)C(=O)N[C@@H](Cc1c[nH]cn1)C(=O)N[C@@H](Cc1c[nH]c2ccccc12)C(=O)N[C@@H](CCCNC(=N)N)C(=O)N[C@@H](CO)C(N)=O
notes: spacer; phage-selected 12-mer; also called synthetic peptide 37; source: synthetic peptide (Chiron Mimotopes, Australia)
Take B4: in experiment [1], the binding result was “binds”.
